This passage reports binding results from paper PMC8487509.

This data set deals with T1, LsrR (Escherichia coli DCM5 (mammary pathogenic)) (UniProt Q8XAY6).
T1 sequence: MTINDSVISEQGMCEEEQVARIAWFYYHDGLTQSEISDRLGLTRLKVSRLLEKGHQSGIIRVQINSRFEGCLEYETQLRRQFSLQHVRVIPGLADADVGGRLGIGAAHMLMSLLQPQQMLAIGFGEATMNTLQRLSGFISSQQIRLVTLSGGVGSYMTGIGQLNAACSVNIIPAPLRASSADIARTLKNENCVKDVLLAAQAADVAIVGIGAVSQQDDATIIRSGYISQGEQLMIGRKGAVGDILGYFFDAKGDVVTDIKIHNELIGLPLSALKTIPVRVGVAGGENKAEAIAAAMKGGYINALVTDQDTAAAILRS
As to the kind of experiment: EMSA. The note with it: 5x binding buffer (4 µL) […]. Background: In EMSA bound probe runs differently from free probe, usually more slowly.

With “TCCGCAAAAGTTCACGTTGGCTTTAGTTATTCGAGTTGAGAAACTCTCGAAACGGGCAGTGACTTCAAGGGTTAAAAGAGGTGCCGCTCCGTTTCTGTGAGCAATTATCAGTCAGAATGCTTGATAGGGATAATCGTTCATTGCTATTCTACCTATCGCCATGAACTATCGTGGCGATGGAGGATGGATA (double strand) [p-oxyR]”, the binding entry was “no binding”.
